{
  "source": "paper PMC12440807",
  "binders": {"B1": {"name": "EC DNA-RNA scaffold (mixed)", "DNA 1": "GCTCCCAGCTCCCTGCTGGCTCCGAGTGGGTTCTGCCGCTCTCAATGG", "DNA 2": "CCATTGAGAGCGGCCCTTGTGTTCAGGAGCCAGCAGGGAGCTGGGAGC", "RNA": "GAGAGGGAACCCACU"}},
  "target": "RNA polymerase II;RECQL5 (Sus scrofa domesticus?;Homo sapiens, UniProt A0A8D1DPV6;A0A0B8RVL1;P19387;O15514;I3LSI7;P61218;P62487;P52434;P36954;P52435;P6 …, |)",
  "sequence (O94762 whole entry, one chain of several)": "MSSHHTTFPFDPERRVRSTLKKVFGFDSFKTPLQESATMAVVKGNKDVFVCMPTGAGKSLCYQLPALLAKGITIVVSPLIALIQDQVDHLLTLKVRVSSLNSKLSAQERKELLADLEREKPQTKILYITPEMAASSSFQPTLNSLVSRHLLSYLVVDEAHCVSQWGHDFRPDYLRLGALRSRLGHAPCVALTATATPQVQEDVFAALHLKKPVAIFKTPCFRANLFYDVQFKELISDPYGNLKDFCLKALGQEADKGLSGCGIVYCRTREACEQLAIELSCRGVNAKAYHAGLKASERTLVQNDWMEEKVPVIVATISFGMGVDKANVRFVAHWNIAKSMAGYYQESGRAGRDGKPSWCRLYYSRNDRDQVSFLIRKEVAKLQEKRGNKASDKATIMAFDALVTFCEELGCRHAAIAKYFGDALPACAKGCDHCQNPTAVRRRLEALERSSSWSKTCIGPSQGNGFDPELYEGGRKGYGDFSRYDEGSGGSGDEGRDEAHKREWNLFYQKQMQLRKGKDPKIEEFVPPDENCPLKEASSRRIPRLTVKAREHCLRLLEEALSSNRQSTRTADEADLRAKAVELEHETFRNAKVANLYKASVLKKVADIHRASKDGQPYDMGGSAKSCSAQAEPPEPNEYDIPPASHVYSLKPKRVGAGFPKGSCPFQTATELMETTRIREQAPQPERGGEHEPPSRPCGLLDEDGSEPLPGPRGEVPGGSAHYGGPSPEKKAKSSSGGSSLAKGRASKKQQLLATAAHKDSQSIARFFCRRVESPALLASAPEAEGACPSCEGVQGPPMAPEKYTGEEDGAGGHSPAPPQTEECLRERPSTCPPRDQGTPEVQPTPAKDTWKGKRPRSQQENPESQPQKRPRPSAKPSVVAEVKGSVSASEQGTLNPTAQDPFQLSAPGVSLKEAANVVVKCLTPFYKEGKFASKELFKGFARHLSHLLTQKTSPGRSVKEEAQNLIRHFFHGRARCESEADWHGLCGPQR",
  "test": "cryo-EM; phosphorylated Pol II; 2.8 A; Mg, Zn in model",
  "conditions": "protein: native;recombinant; tags: none;His6-MBP, TEV-cleaved; copies: 1;1;1;1;1;1;1;1;1;1;1;1;1",
  "data": [
    {"binder": "B1", "values": [
      {"measurement": "binding result", "result": "binds"}
    ]}
  ]
}
